Assay results: CN112125972A

Key:
Assay in all cases: double-antibody sandwich ELISA, R001 as detection antibody, against reference products of the different expression systems
[1] = biological target: E1.16 HPV16 VLPs (Human papillomavirus type 16) (UniProt P03101)
[2] = biological target: Y1.16 HPV16 VLPs (Human papillomavirus type 16) (UniProt P03101)
[3] = biological target: E2.16 HPV16 VLPs (Human papillomavirus type 16) (UniProt P03101)
[4] = biological target: I1.16 HPV16 VLPs (Human papillomavirus type 16) (UniProt P03101)
[5] = biological target: Y2.16 HPV16 VLPs (Human papillomavirus type 16) (UniProt P03101)

Measured: 抗原/蛋白比值

B1: HPV 16 R001 (antibody, V domains shown)
VH: QSVKESEGRLVTPGTPLTLTCTASGFTMSRYHMTWVRQAPGKGLEWIGIIYARNSDTYYANWAKGRFTISKTSTTVDLKITSPTIEDTATYFCARVDSDSSGAFDRLDLWGQGTLVTVSS
VL: DPMLTQTAASVEVAVGGTVTIKCQASQSIGGYLSWYQQKPGQRPKLLIYRASTLASGVPSRFKGSGSGTEYTLTFSGVECADAAAYYCQQGYTSSDINNAFGGGTEVVVK
1: [1] | [2] | [3] | [4] | [5]
